The record followed here is PMC5206904 (DNA repair, 2015).

The target in this test is T1, recombinant ALKBH2 with a streptavidin binding peptide tag (human, UniProt Q6NS38 1-261).
T1 sequence (looked up): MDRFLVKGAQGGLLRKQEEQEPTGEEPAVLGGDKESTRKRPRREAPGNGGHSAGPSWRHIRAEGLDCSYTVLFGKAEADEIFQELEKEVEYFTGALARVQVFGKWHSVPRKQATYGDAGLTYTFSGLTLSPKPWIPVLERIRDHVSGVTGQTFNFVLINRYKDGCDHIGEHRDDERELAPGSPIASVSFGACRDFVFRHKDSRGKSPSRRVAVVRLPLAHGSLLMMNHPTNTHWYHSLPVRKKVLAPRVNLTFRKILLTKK
Kind of test: pull-down.

B1: recombinant PCNA mutant VDK188 (natural protein, UniProt P12004 1-261, looked up)
chain: MFEARLVQGSILKKVLEALKDLINEACWDISSSGVNLQSMDSSHVSLVQLTLRSEGFDTYRCDRNLAMGVNLTSMSKILKCAGNEDIITLRAEDNADTLALVFEAPNQEKVSDYEMKLMDLDVEQLGIPEQEYSCVVKMPSGEFARICRDLSHIGDAVVISCAKDGVKFSASGELGNGNIKLSQTSNAAAEEEAVTIEMNEPVQLTFALRYLNFFTKATPLSSTVTLSMSADVPLVVEYKIADMGHLKYYLAPKIEDEEGS
Turning to B1, the binding result is reported as “binds”.
